{"source": "patent US20050079218A1", "about": "“Matrices for the stabilizing and controlled release of problematic substances” (priority 2001, published 2005)", "key": {"U78 MG tumour": {"tested_on": "U78 MG tumour", "experiment": "efficacy of BCNU matrices in tumour-bearing nude mice (FIG. 2)", "assay_type": "in vivo", "settings": "U78 MG tumour subcutaneously inoculated", "description": "Thus the effectiveness of BCNU in tumour-bearing nude mice (U78 MG tumour subcutaneously inoculated) is the same for a lipid matrix according to the invention and for a conventional polyanhydride matrix, as shown in FIG. 2.\nIn FIG. 2, the area of the tumour is plotted in […] on the ordinate, and the time in days on the abscissa."}, "[1]": {"settings": "cited from earlier work"}, "[2]": {"experiment": "release of model substances from cylindrical lipid carrier systems with differing gelatin content (FIGS. 3 and 4)", "assay_type": "physicochemical", "settings": "phosphate buffer pH 7.4, 37° C.; for period of controlled release: lipid matrix with 0, 1, 5, 10 and 20% gelatin, cylindrical; for control of release via gelatin content: fluorescence intensity", "description": "FIGS. 3 and 4 show diagrams illustrating the dependence of the rate of release on the proportion of release-controlling substance in the carrier system according to the invention. In the embodiment shown in FIGS. 3 and 4, a lipid matrix composed of glycerol tripalmitate with differing gelatin contents […]. The carrier system used is cylindrical in shape.\nThe proportion of gelatin within the carrier system is 0, 1, 5, 10 and 20%.\nThe quantity released in percent is shown on the ordinate, and the time in days on the abscissa.\nSubstances used for the release from the carrier system (for example pyranine or tetramethylrhodamine-labelled bovine serum albumin (TAMRA-BSA) were dispersed in the desired quantity in an aqueous 15% (m/m) gelatin solution. 100-μl portions of this dispersion were pipetted into each opening in a 96-hole plate, and freeze-dried. The lyophilisate was comminuted in a mortar, and mixed with glyceryl trimyristate in a desired percentage. Powder mixtures with a content of up to 30% (m/m) of gelatin resulted. Cylindrical carrier systems were produced by compressing the corresponding proportions by weight of gelatin with lipid granulate. To this end, 7 mg of substance was produced in a 2-mm pressing tool using a compressive force of 250 N over 10 sec. In this way, carrier system charged with pyranine or fluorescence-labelled bovine serum albumin (TAMRA-BSA) were produced in the composition, as shown in Table 1.\n(§1) To test the release of model substances from carrier systems depending on the content of release-controlling substance, the cylinders obtained in Example 1 were incubated at 37° C. in 40 ml of phosphate buffer at pH 7.4. The release of the substances was monitored by measuring the fluorescence intensity. To this end, pyranine was excited at 407 nm and the emission measured over 436 nm. The TAMRA-BSA content was determined at a wavelength of 572 nm with excitation at 541 nm."}, "[3]": {"experiment": "release of active hyaluronidase from carrier matrices in phosphate buffer, activity via Morgan-Elson reaction (FIG. 1)", "assay_type": "physicochemical", "description": "The ordinate gives the release quantity of hyaluronidase in percent, and the abscissa the time in hours.\nas §1\nTo test the stabilising properties of the carrier systems, glyceryl trimyristate was worked up with hyaluronidase. To this end, 25 mg neopermease, a mixture of 200,000 IU hyaluronidase and gelatin, was mixed with 325 mg of lipid and compressed as described in Example 1 to form cylindrical carrier systems weighing 7 mg. The gelatin content of this mixture was approximately 7.1%. To determine the release of the enzyme, 5 matrices were incubated with phosphate buffer as described in Example 2, and the release determined by measuring the activity via the Morgan-Elson reaction (Muckenschnabel I., Cancer Lett. 131(1) (1998) 13 to 20)."}}, "data": [{"compound": "O=NN(CCCl)C(=O)NCCCl", "note": "[BCNU, carmustine]", "values": [{"measurement": "effectiveness (tumour area over time), lipid matrix versus conventional polyanhydride matrix", "setting": "U78 MG tumour", "value": "the same"}, {"measurement": "half-life in plasma", "setting": "[1]", "value": "approximately 20 minutes"}]}, {"compound": "O=S(=O)([O-])c1cc(O)c2ccc3c(S(=O)(=O)[O-])cc(S(=O)(=O)[O-])c4ccc1c2c34.[Na+].[Na+].[Na+]", "note": "[pyranine]", "values": [{"measurement": "period of controlled release", "setting": "[2]", "value": "over a period of several weeks"}, {"measurement": "control of release via gelatin content", "setting": "[2]", "value": "optimally controlled via the gelatin content"}]}, {"compound": "TAMRA-BSA: bovine serum albumin fluorescence-labelled with tetramethylrhodamine", "values": [{"measurement": "period of controlled release", "setting": "[2]", "value": "over a number of weeks or months"}, {"measurement": "control of release via gelatin content", "setting": "[2]", "value": "optimally controlled via the gelatin content"}]}, {"compound": "hyaluronidase", "values": [{"measurement": "activity liberated from carrier system", "setting": "[3]; glyceryl trimyristate cylinders, gelatin approximately 7.1%, phosphate buffer pH 7.4, 37° C.", "value": "all the activity is liberated"}, {"measurement": "effect of release on the enzyme", "setting": "[3]; release from conventional system poly(1,3-bis[carboxyphenoxypropane]-sebacic acid) 20:80", "value": "inactivation"}, {"measurement": "activity of the enzyme achieved on release", "setting": "[3]; release from glyceryl tripalmitate matrix", "value": 100, "unit": "%"}]}]}
